# Test results reported in article doi:10.1101/2022.05.14.22275020, “A homozygous p.(Arg371Ser) mutation in FICD de-regulates AMPylation of the human endoplasmic reticulum chaperone BiP causing infancy-onset diabetes and severe neurodevelopmental delay” (medRxiv, 2022).
# Target: the molecule itself
# Assay: SEC; analytical SEC, Agilent Bio SEC-3 HPLC column, TNT buffer (25 mM Tris pH 8.0, 150 mM NaCl, 1 mM TCEP), 25 °C; proteins diluted to a range of concentrations (given in Figure 3a) and incubated at least 1 h at room temperature; dimer against monomer
row,Protein,stoichiometry N
1,"wild-type FICD, structured luminal region (residues 104-445) (enzyme, human, UniProt Q9BVA6 104-445, looked up, human FICD (Fic domain-containing protein), structured luminal region, residues 104-445; purification as in Perera et al., 2019 and 2021; also called FICD^WT; WT; source: E. coli T7 Express lysY/Iq (NEB), purified (Ni-NTA, Ulp1 cleavage, anion exchange, gel filtration); not shown: His6, N-terminal, cleaved; SUMO, N-terminal, cleaved) LEARAALNQALEMKRQGKREKAQKLFMHALKMDPDFVDALTEFGIFSEEDKDIIQADYLYTRALTISPYHEKALVNRDRTLPLVEEIDQRYFSIIDSKVKKVMSIPKGNSALRRVMEETYYHHIYHTVAIEGNTLTLSEIRHILETRYAVPGKSLEEQNEVIGMHAAMKYINTTLVSRIGSVTISDVLEIHRRVLGYVDPVEAGRFRTTQVLVGHHIPPHPQDVEKQMQEFVQWLNSEEAMNLHPVEFAALAHYKLVYIHPFIDGNGRTSRLLMNLILMQAGYPPITIRKEQRSDYYHVLEAANEGDVRPFIRFIAKCTETTLDTLLFATTEYSVALPEAQP",2
2,"FICD^R371S, structured luminal region (residues 104-445) (enzyme, human, UniProt Q9BVA6 104-445, looked up, human FICD, structured luminal region, residues 104-445, with the patient variant p.(Arg371Ser) (NM_007076.2:c.1113G>C); Rare human variant found in patients; also called Arg371Ser mutant FICD; p.(Arg371Ser); source: E. coli T7 Express lysY/Iq (NEB), purified (Ni-NTA, Ulp1 cleavage, anion exchange, gel filtration); not shown: His6, N-terminal, cleaved; SUMO, N-terminal, cleaved) LEARAALNQALEMKRQGKREKAQKLFMHALKMDPDFVDALTEFGIFSEEDKDIIQADYLYTRALTISPYHEKALVNRDRTLPLVEEIDQRYFSIIDSKVKKVMSIPKGNSALRRVMEETYYHHIYHTVAIEGNTLTLSEIRHILETRYAVPGKSLEEQNEVIGMHAAMKYINTTLVSRIGSVTISDVLEIHRRVLGYVDPVEAGRFRTTQVLVGHHIPPHPQDVEKQMQEFVQWLNSEEAMNLHPVEFAALAHYKLVYIHPFIDGNGSTSRLLMNLILMQAGYPPITIRKEQRSDYYHVLEAANEGDVRPFIRFIAKCTETTLDTLLFATTEYSVALPEAQP",2
